Experimental data reported in the supplement of paper PMC9170038.

System: K4 kissing-loop RNA reporter
Assay: apparent KD of K4 kissing-loop reporter; higher = weaker reporter binding
Settings: Eterna round: R107
Procedure: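 RNA-MaP round R107: designed RNA switches with theophylline, tryptophan, arginine or FMN aptamers are transcribed on-chip within common flanks. They are titrated with a labelled K4 kissing-loop RNA reporter in RNA-MaP buffer (100 mM Tris pH 7.5, 80 mM KCl, 4 mM MgCl2), without ligand or with the indicated ligand. Median apparent KD per design.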

[1] = input ligand: theophylline 20 uM
[2] = input ligand: tryptophan 2.4 mM
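Also: bound reporter read as fluorescence of individual clusters on recovered sequencing chips by microscopy, with normalized cluster intensities fitted with a binding model.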

| Sequence | apparent KD of K4 kissing-loop reporter (input ligand: FMN 200 uM) [nM] | apparent KD of K4 kissing-loop reporter (input ligand: arginine 13.2 mM) [nM] | apparent KD of K4 kissing-loop reporter (input ligand: none) [nM] | apparent KD of K4 kissing-loop reporter [1] [nM] | apparent KD of K4 kissing-loop reporter [2] [nM] |
| --- | --- | --- | --- | --- | --- |
| UAUAAUUCGGCGGCCGCCACUGACCAUAGCCUUCGAUGGCCAGUGAUGUUGGCCUCUGGCUCUAACAGGACCGGGCCGAAUUGUG [Reresoza] | 211 | 164 | 180 | 138 | 120 |
| UAUAGAAACGUCCUAUCAGUAAAAUGGGAAGGAGCGAGGAAGGACUCAGGUAGGUCGCCCAAUAACCUUAGUGAUGUUAAGGAAA [Version 2] | 155 | 128 | 131 | 112 | 122 |
| UAUAUAGUGACGGCCGCCACUAUAGUGAUGUUAUUGUUAGAGUGAUGUUUUGUUGUUUAAUUUUGUAGGACCGGGUUAUAUGUUA [tbbtmullin] | 632 | 418 | 504 | 497 | 446 |
| UAUAUAGUGACGGCCGCCACUAUAUUAAUGUUUUUGUUAGAGUGAUGUUUUGUUUUUUAAUUUUAUAGGACCGGGUUAUAUGUUA [xnxmullin] | 275 | 155 | 253 | 335 | 188 |
| UAUUAAUUGACGGCCGCCACUAUUGUGAUUUAUUUGUUUGAGUGAUGUUUUGAUGUUUGAUUUUGUAGGACCGGGUUAUGUGUUA [zwzcmullin] | 918 | 768 | 954 | 816 | 711 |
| UAUUCUAAUGCGGCCGCCACUGGAAGUGAUGUUUCCUCUGGCUAUCAUUUCGGACGGUAUUGUCCCAGGACCGGGCAUCCCUCUC [theeternabot_exclusion_KL_Trp_B_4] | 109 | 101 | 106 | 104 | 103 |
| UAUUUAGUGACGGCCGCCACUAUUGUGAUUUAAUUGUUUGAGUGAUGUUUUGAUGUUUGAUUUUGUAGGACCGGGUUAUGUGUUA [tyttmullin] | 1020 | 745 | 827 | 791 | 749 |
| UCACAGUCCAAAGGAUAUUGAGUGCGCGUGCGAUUUAAGCUGAAGCCGUAGCUAGUGAUGUUAGCCCAAGAAGGUUGGUAGCCAG [theeternabot_exclusion_KL_FMN_B_16] | 136 | 128 | 140 | 193 | 115 |
| UCCAGCAGUACUGAUACCAGACUGCAUGUAGUGAUGUUGCAUAAGGGCAUAGAUGUCUCAGUCCCUUGGCAGCGGUACUGUUGCA [#09 K4 Theophylline B Same State] | 379 | 294 | 325 | 251 | 286 |
| UCCCGAGUGAUGUUCGGCGCGGUCACCGAAGGAGCGGGCGAAAGCCCAGGUAGGUCGCGGUAGCGGAGUGAUUCUCCGCGACCGC [Same State Arginine A GF 24] | 509 | 241 | 286 | 344 | 298 |
| UCCGAGCUUAUUGAUACCAGUUCGGCGAGCUACUAGAGUGAUGUUCUUGUAAGCGUACACAACCCUUGGCAGCAAUAGAGGAGGU [theeternabot_sameState_KL_Theo_B_37] | 157 | 128 | 135 | 130 | 135 |
| UCCGGUCGGUGAGCCAGUGAUGUUGGUCAGAAGGAUAUCUGGCAACAGAGAAGGUCUGCAUCAGCCUAGAUAUCCUGGCGACCGG | 145 | 91.4 | 79 | 84.2 | 69.2 |
| UCCUAGACUUAGCUAGGUAUAUAAUACGAUACCAGUCUAGAGAUAGACCCUUGGCAGCGUAGGCAGUGAUGUUGCCACUAGCUGA [Theo B SS t7a] | 97.6 | 110 | 103 | 111 | 101 |
| UCCUAGGACUUCAGGCGAAAGCCCUGCGAAGGAGCGUGCGAAAGCACAGGUAGGUCGCGCAGUGAUGUUGCACCUAGGUAAUAAA [#SwitchBubble 20 #K4Late] | 481 | 656 | 489 | 1020 | 124 |
| UCCUAGGCUCGAAAGAGCCUAGGAUUUACUCAGGAUAUCCGGAAACGGAGAAGGGAGUGACUAGUGAUGUUAGGGACUCCCUAUU | 93.1 | 81.7 | 87.9 | 85.2 | 94.4 |
| UCCUGCAAUCUGCCACGAAAGUGGAUGGAUACCAGAGUCGAAAGACUCCCUUGGCAGCCAGUGAUGUUGGAAGCAGGUAAAUAAA | 268 | 396 | 454 | 460 | 271 |
| UCCUUUUUUGCCAGUGAUGUUGGACAGGAAGGAGCGGGCAUAAGCCCAGGUAGGUCGCCUGUCAACUUUCUUAUAGCCCUAAGGU [Edveza] | 271 | 226 | 236 | 210 | 245 |
| UCGAAGGAUGGAAGGAGCGCUCGUCAGUCCUGCGAGUGAUGUUCGUGGGUAAAUAUUCGCGAGCAGGUAGGUCGCCAUCUUGAGA [Laatla] | 135 | 96.7 | 112 | 108 | 129 |
| UCGAUGGCCAGCGAUACCAGCCCAGUGAUGUUGGGCACAUGGUUGCGGGAAAUCCCAUUGGGCCCUUGGCAGCGCUUGCAUAGGU [Cezaat] | 197 | 155 | 162 | 219 | 171 |
| UCGGACCCUGGAGGAUAUGAGUCGAGUGAUGUUCGGCGGUCCAUGCCGAUGCGGCGUUAUGCCCUUUUAGAAGGCCAGGGUCCGA [#2 Exclusion - FMN B Attempt #10 (HarryS)] | 498 | 216 | 277 | 268 | 264 |
| UCGGACGCGCACCUAGGCCAAUCCACUGCGAAGGAUAUGCGCGCCAGCAGAAGGUCGUUUUAUGAGUGAUGUUUAGAAACAGCGU [theeternabot_exclusion_KL_FMN_A_25] | 428 | 250 | 305 | 294 | 246 |

| Sequence | apparent KD of K4 kissing-loop reporter (input ligand: FMN 200 uM) [nM] | apparent KD of K4 kissing-loop reporter (input ligand: arginine 13.2 mM) [nM] | apparent KD of K4 kissing-loop reporter (input ligand: none) [nM] | apparent KD of K4 kissing-loop reporter [1] [nM] | apparent KD of K4 kissing-loop reporter [2] [nM] |
| --- | --- | --- | --- | --- | --- |
| UCGGGCGGCUGAAGGAGCGGGCGGGCCCGAGUGAUGUUCGGGUGGGCUGUGAGGCCCGGAGCCCAGGUAGGUCGCGGUUCCGCCC [#2 Same State - Arginine B Attempt #28 (HarryS)] | 262 | 181 | 157 | 168 | 158 |
| UCUGUGUCCGCGGCCGCCACUCGGGACUAAGUGAUGUUUAGUCCUUCAGAAUAAAGAAGUGAUGAGAGGACCGGGCGAUCGCACC [theeternabot_sameState_KL_Trp_B_2] | 100 | 81.9 | 99.6 | 72.3 | 102 |
| UCUGUUGUAUAUGAUACCAGCAGUGAGAGACAGGAAGUAUAGUGAUGUUAUAUGAGAGAAUGCCCUUGGCAGCGUGUGCGGUUGG [SSTheophylB.W] | 191 | 158 | 155 | 148 | 131 |
| UCUGUUGUAUAUGAUACCAGCAGUGAGAGACGAGAAGUAUAGUGAUGUUAUAUGAGAGAAUGCCCUUGGCAGCGUGUGCGUGUGG [SSTheophylB.aB] | 111 | 110 | 95.4 | 118 | 83.2 |
| UGAACCGCCCAGUGAUGUUGGGCCAUAGAUACCAGCCUCUCCGACGGCCCUUGGCAGCUAGGGCCCGGCAGGUAGGAGACUCUGC [Orarzasove] | 199 | 220 | 272 | 239 | 204 |
| UGACAUUGCUCAGAUACCAGACAUGAGCAUCAGCCAUGUGCCAAAUAAACGUACAUAAAUGUCCCUUGGCAGCUGAGCAAUGUCU [TheoBX 11] | 53 | 33.2 | 38.3 | 118 | 64.9 |
| UGACUACAAAAGGAAUAAUCCUAGUGAUGUUAGGAUAUGCUGAUAAGCAGAAGGAACUGAGAUCGAAAGAUCUCAAAUGUAGUCU [FmnAX 25 Mat Inspired #SwitchBubble #StaticStem #K4Early] | 116 | 89.1 | 92.3 | 103 | 93 |
| UGACUGGACUGAAGGAGCGCGAAACUCCUAGUGAUGUUAGGAAUACGAGACAAAGUCUCGACGCAGGUAGGUCGCAGUCUAGUCU [ArgBS 16 #SwitchBubble #StaticStem] | 115 | 94.5 | 113 | 110 | 100 |
| UGACUGGACUGAAGGAGCGCGCGAGACAAAGUCUCGAACUGGUAGUGAUGUUAUCAAAUAACGCAGGUAGGUCGCAGUCUAGUCU [ArgBS 12 #SwitchBubble #StaticStem] | 251 | 167 | 255 | 193 | 188 |
| UGACUGGACUGAAGGAGCGUGGAAGGAGCGUAAGUAGUGAUGUUGCUUACAGGUAGGUCGCCGCAGGUAGGUCGCAGUCUAGUCU | 62.5 | 47.4 | 56.5 | 53.6 | 63.5 |
| UGACUGGACUGAAGGAGCGUUCAGGUAGGUCGCUAAGGAGUGAUGUUCCAUAGAAGGAGCGAACAGGUAGGUCGCAGUCUAGUCU [ArgBS 29 #DoubleAptamer #SwitchBubble] | 139 | 169 | 163 | 190 | 102 |
| UGACUGGACUGAAGGAGCGUUGAAGGAGCGUAAGUAGUGAUGUUGCUUACAGGUAGGUCGCAGCAGGUAGGUCGCAGUCUAGUCU | 67.1 | 43.7 | 63 | 54.3 | 52.6 |
| UGACUGGAUGGAAGGAGCGCUAAACUCCUAGUGAUGUUAGGGAAACGAGACAAAGUCUCGAGGCAGGUAGGUCGCCAUCUAGUCU [FiskerMod 15 - Jieux - Same State - Arginine B] | 183 | 139 | 168 | 165 | 155 |
| UGACUGGAUGGAAGGAGCGCUAAACUCCUAGUGAUGUUAGGGACACGAGACAAAGUCUCGAAGCAGGUAGGUCGCCAUCUAGUCU [FiskerMod 13 - Jieux - Same State - Arginine B] | 219 | 156 | 160 | 352 | 166 |
| UGACUGGAUGGAAGGAGCGCUAAACUCCUAGUGAUGUUAGGGACACGAGACAAAGUCUUGAAGCAGGUAGGUCGCCAUCUAGUCU [FiskerMod 9 - Jieux - Same State - Arginine B] | 217 | 187 | 229 | 228 | 238 |
| UGAUACCAGACGGCCGCCACUAGACCAGUCAAAGACUGGAUGUGAUGUUUGAGGAGUGAUGUUCCUAGGACCGGGUCUGGUAUCU [TrypBX 4 #Palindromic #SwitchBubble #StaticStem] | 91.3 | 76.7 | 82.4 | 87.6 | 28.2 |
| UGAUACCAGACGGCCGCCACUAGGACCGGGAGUGAUGUUCCGAAAAUUAAAUGCUCGGCCGCCACUAGGACCGGGUCUGGUAUCU [TrypBX 28 #DoubleAptamer #SwitchBubble] | 478 | 253 | 308 | 349 | 128 |
| UGAUACCAGACUGAUACCAGCAGUGAUGUUGCUGAUAAGGGUAGAGUCAAAGACUCUACCUGCCCUUGGCAGCAGUCUGGUAUCU [TheoBX 14 #SwitchBubble #StaticStem] | 167 | 146 | 167 | 173 | 156 |
| UGAUACCAGACUGAUACCAGCCACAGAGUCAAAGACUCUGAUAAAGGUACCAGUGAUGUUGGCCCUUGGCAGCAGUCUGGUAUCU [TheoBX 17 #SwitchBubble #StaticStem] | 158 | 126 | 143 | 151 | 141 |
| UGAUACCAGGCGGCCGCCACUCCUACAGGUCAAAGACCUGUAAAGCUGGUUCUCCAGUGAUGUUGGAGGACCGGGCCUGGUAUCU [FiskerMod 29 - Jieux - Exclusion - Tryptophan B] | 206 | 156 | 179 | 150 | 428 |
| UGAUAGGACAGAAGGAGCGGAAGUGAUGUUUCCAAAAGGAAAGGUCGACAAAGUCGACCCUUCCAGGUAGGUCGCUGUCCUAUCU [ArgBX 8 #Palindromic #SwitchBubble #StaticStem] | 88.2 | 90.5 | 82.9 | 84.9 | 81.5 |
